Measurements published in the supplement of paper PMC10126150.
± gives the standard deviation of the averaged measurements.

What follows are sequences tested on ATP (assay: switch fluorescence ratio, 500 uM ATP over buffer (Cy3 cluster intensity, sum of 5 cycles each) (fold (ratio)); higher = stronger signal-on switching upon ATP binding; sequences stand for … in TCGTCGGCAGCGTCAGATGTGTATAAGAGACAGTTTTTTTTTTTTTTTTTTTTTTTTT…TC). Conditions: aptamer strand: ATP DNA aptamer (quencher-CACCTGGGGGAGTATTGCGGAGGAAGG + anchor), 100 nM annealed; ATP concentration: 500 uM.
How it was run: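 Exposure to 500 uM ATP lasted 15 min at 22 °C before imaging, and a selection-buffer image was taken beforehand, for Cy3-labelled switching-strand clusters on a modified Illumina MiSeq flow-cell annealed to 100 nM quencher-labelled ATP aptamer. Five buffer/ATP cycles were run with NaOH stripping and re-annealing between them. The fluorescence ratio per cluster is summed target-cycle over summed buffer-cycle Cy3 intensity, averaged per switch-domain sequence. Clusters outside 100-1000 RFU were excluded.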

| Sequence | switch fluorescence ratio |
| --- | --- |
| ATTTGGATGC | 1.01 ± 0.042 |
| ATTTGGGACT | 1.03 ± 0.036 |
| ATTTGGGAGA | 0.978 ± 0.042 |
| ATTTGGGGGA | 0.999 ± 0.029 |
| ATTTGGGGGC | 0.973 ± 0.057 |
| ATTTGGGGGG | 1 ± 0.047 |
| ATTTGGGTGA | 1.03 ± 0.047 |
| ATTTGGGTGG | 0.987 ± 0.041 |
| ATTTGGGTGT | 1.05 ± 0.02 |
| ATTTGGTATC | 0.997 ± 0.017 |
| ATTTGGTCGT | 0.979 ± 0.048 |
| ATTTGGTGTT | 1.01 ± 0.032 |
| ATTTGTAAGA | 0.9927 ± 0.0045 |
| ATTTGTCCGT | 1.03 ± 0.018 |
| ATTTGTGGTT | 0.9752 ± 0.0085 |
| ATTTGTTTTC | 0.953 ± 0.013 |
| ATTTTAAAGA | 1.009 ± 0.0062 |
| ATTTTAAGGG | 1.003 ± 0.0042 |
| ATTTTAATGG | 0.9907 ± 0.0036 |
| ATTTTAATTG | 1.02 ± 0.016 |
| ATTTTAGATG | 1 ± 0.025 |
| ATTTTAGGGA | 0.98918 ± 0.00041 |
| ATTTTAGGGG | 0.983 ± 0.035 |
| ATTTTAGTTT | 1 ± 0.016 |
| ATTTTATCTC | 1.22 ± 0.27 |

| Sequence | switch fluorescence ratio |
| --- | --- |
| ATTTTCGGTT | 0.997 ± 0.034 |
| ATTTTCGTTT | 0.945 ± 0.024 |
| ATTTTGAAAG | 1.01 ± 0.022 |
| ATTTTGATAC | 1.01 ± 0.044 |
| ATTTTGATAT | 1.01 ± 0.018 |
| ATTTTGATGT | 0.995 ± 0.051 |
| ATTTTGCGTT | 0.998 ± 0.031 |
| ATTTTGGGGC | 1.03 ± 0.018 |
| ATTTTGGTAT | 1.01 ± 0.027 |
| ATTTTGGTGA | 1 ± 0.035 |
| ATTTTGTGGG | 1 ± 0.023 |
| ATTTTTAAAC | 0.992 ± 0.066 |
| ATTTTTAAGG | 0.995 ± 0.021 |
| ATTTTTAATC | 1.06 ± 0.14 |
| ATTTTTAGAC | 1.03 ± 0.022 |
| ATTTTTATAC | 1.02 ± 0.021 |
| ATTTTTCTAT | 0.987 ± 0.027 |
| ATTTTTCTGA | 1 ± 0.019 |
| ATTTTTGCGT | 1.01 ± 0.041 |
| ATTTTTGCTT | 0.994 ± 0.019 |
| ATTTTTGGAG | 0.9792 ± 0.0053 |
| ATTTTTGGCC | 1.02 ± 0.035 |
| ATTTTTGTCT | 0.983 ± 0.06 |
| ATTTTTGTTT | 0.985 ± 0.023 |
| ATTTTTTAAA | 0.994 ± 0.027 |

| Sequence | switch fluorescence ratio |
| --- | --- |
| ATTTTTTAGT | 0.983 ± 0.013 |
| ATTTTTTGGA | 1.01 ± 0.026 |
| ATTTTTTGTG | 0.9732 ± 0.0082 |
| ATTTTTTTCC | 1.38 ± 0.57 |
| ATTTTTTTTG | 0.987 ± 0.023 |
| ATTTTTTTTT | 1 ± 0.026 |
| CAAAAAGGCG | 1.03 ± 0.054 |
| CAAAAAGTAG | 1.014 ± 0.0062 |
| CAAAACAGGT | 1.01 ± 0.032 |
| CAAAAGGAAA | 0.992 ± 0.022 |
| CAAAATAAGA | 1.01 ± 0.017 |
| CAAAATACGG | 1.07 ± 0.052 |
| CAAACATTTT | 0.9795 ± 0.0044 |
| CAAACTCCCA | 1.16 ± 0.18 |
| CAAAGCTATT | 1.008 ± 0.006 |
| CAAAGCTTGA | 1.01 ± 0.036 |
| CAAAGGGAAA | 1.02 ± 0.033 |
| CAAAGGGCGG | 0.9985 ± 0.0012 |
| CAAAGGTTAG | 1.0209 ± 0.001 |
| CAAAGTACAA | 1.17 ± 0.02 |
| CAAAGTGTGG | 0.989 ± 0.054 |
| CAAAGTTGGT | 0.994 ± 0.05 |
| CAAATAAACC | 1.03 ± 0.018 |
| CAAATAACGT | 0.9893 ± 0.0097 |
| CAAATAGATG | 1 ± 0.029 |

| Sequence | switch fluorescence ratio |
| --- | --- |
| CAAATCCTAT | 1.01 ± 0.013 |
| CAAATGGTCT | 1 ± 0.013 |
| CAAATTGGGT | 0.996 ± 0.04 |
| CAAATTTGAT | 1.03 ± 0.027 |
| CAAATTTGGG | 1.02 ± 0.014 |
| CAAATTTGTC | 0.994 ± 0.02 |
| CAACAACTTC | 1.01 ± 0.0034 |
| CAACAGGGGT | 1.14 ± 0.23 |
| CAACATGTTT | 1.02 ± 0.03 |
| CAACCGCCTT | 1.46 ± 0.12 |
| CAACCTGAAC | 2.39 ± 0.2 |
| CAACGAGTGG | 1.012 ± 0.0028 |
| CAACGGGGGT | 1.03 ± 0.018 |
| CAACGTAGGT | 1.05 ± 0.013 |
| CAAGAAAAGT | 0.978 ± 0.048 |
| CAAGAGGGTC | 1.04 ± 0.067 |
| CAAGAGTATT | 0.995 ± 0.022 |
| CAAGAGTGC | 1.025 ± 0.0091 |
| CAAGATCGGC | 1.01 ± 0.079 |
| CAAGATGGGA | 0.963 ± 0.082 |
| CAAGATGTTG | 0.987 ± 0.047 |
| CAAGCCGGGG | 0.979 ± 0.021 |
| CAAGCGTGCG | 0.98 ± 0.012 |
| CAAGGAAGGA | 0.9967 ± 0.005 |
| CAAGGAGTCT | 1.02 ± 0.035 |
